Test system: MC38 MDOTS
Experiment: RNA-seq of MDOTS after ex vivo treatment
Format: cell-based, murine
Settings: Day 6
From the text: RNA is collected from a subset of the MDOTs within the device after the supernatants have been collected and cDNA libraries for RNA sequencing is generated to evaluate global transcriptome changes associated with treatment regimen on single samples per drug treatment. These types of data may be generated from a variety of clinical specimens. The RNA Advance tissue RNA isolation method (Beckman Coulter) is utilized, which is a bead wash based separation technique, which facilitates elution volumes amenable to sample input for RNA-Seq library preparation. Automated library preparation can be performed using as little as 10 ng of good quality RNA. The RNA Access method from Illumina is utilized, which enriches for the coding region of the genome. Libraries are sequenced on the NextSeq500 platform, as 75 bp Single End to generate approximately 20 million reads per sample. With appropriate adaptors, 24 samples are multiplexed on each NextSeq500 run. The concentration [ng/ul], yield [ng] and quality of RNA (high RIN #by bioanalyzer) derived from the MDOTS are more than sufficient to ensure good quality libraries for subsequent sequencing (FIG. 15).
The STAR RNA sequencing alignment tool (Spliced Transcripts Alignment to a Reference) [STAR_2.5.0a]) is utilized to align the data to the genome (RefSeq gene annotations). […]

B1: IFNγ: interferon gamma used as MC38 MDOTS treatment in RNA-seq (protein, UniProt P01580 23-155, looked up)
Interferon gamma: HGTVIESLESLNNYFNSSGIDVEEKSLFLDIWRNWQKDGDMKILQSQIISFYLRLFEVLKDNQAISNNISVIESHLITTFFSNSKAKKDAFMSIAKFEVNNPQVQRQAFNELIRVVHQLLPESSLRKRKRSRC
expression of IFNγ genes incl. CXCL10, CXCL11, PD-L1, IDO1, IDO2 (RNA-seq) in MC38 MDOTS: induced
